Measurements reported in the supplement of paper PMC7125110.
± gives the standard error. For part of these data: Variants at the floor of the assay were thinned out.

B1: glmS ribozyme (parent)
chain: AUAAAAGCGCCAGAACUACAGAAAUGUAGUUGACGAGGAGGAGGUUUAUCGAAUUUUCGGCGGAUGCCUCCAAA

Key:
Details in all cases: with glucosamine-6-phosphate
glucosamine-6-phosphate [1] = variants of: B1; test: kcat; higher = faster cleavage; RNA array
Summary of the method: (§1)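 In situ transcription by E. coli RNA polymerase produced barcoded ribozyme variants on sequenced MiSeq chips, and a hybridised Cy3 probe tracked them at 37 °C. Glucosamine-6-phosphate was flowed in at 40 μM to 10 mM in HEPES/KCl/Mg(OAc)2 buffer. kcat and KM were taken from weighted Michaelis–Menten fits of kobs values from exponential decay fits.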

glucosamine-6-phosphate [2] = variants of: B1; test: self-cleavage kobs at 40 uM GlcN6P; higher = faster cleavage; RNA array
Summary of the method: as §1

glucosamine-6-phosphate [3] = variants of: B1; test: self-cleavage kobs at 160 uM GlcN6P; higher = faster cleavage; RNA array
Summary of the method: as §1

glucosamine-6-phosphate [4] = variants of: B1; test: self-cleavage kobs at 640 uM GlcN6P; higher = faster cleavage; RNA array
Summary of the method: as §1

glucosamine-6-phosphate [5] = variants of: B1; test: self-cleavage kobs at 2500 uM GlcN6P; higher = faster cleavage; RNA array
Summary of the method: as §1

glucosamine-6-phosphate [6] = variants of: B1; test: KM; higher = weaker cofactor use; RNA array
Summary of the method: as §1

glucosamine-6-phosphate [7] = variants of: B1; test: self-cleavage kobs at 10000 uM GlcN6P; higher = faster cleavage; RNA array
Summary of the method: as §1

Variant	kcat (glucosamine-6-phosphate [1]) [s⁻¹]	self-cleavage kobs at 40 uM GlcN6P (glucosamine-6-phosphate [2]) [s⁻¹]	self-cleavage kobs at 160 uM GlcN6P (glucosamine-6-phosphate [3]) [s⁻¹]	self-cleavage kobs at 640 uM GlcN6P (glucosamine-6-phosphate [4]) [s⁻¹]	self-cleavage kobs at 2500 uM GlcN6P (glucosamine-6-phosphate [5]) [s⁻¹]	KM (glucosamine-6-phosphate [6]) [µM]	self-cleavage kobs at 10000 uM GlcN6P (glucosamine-6-phosphate [7]) [s⁻¹]
G40C C61U	< 1e-05	< 1e-05	< 1e-05	< 1e-05			
U30C C58U C70U	3.42e-05 ± 1.3e-05			5.85e-05 ± 2.1e-05	3.95e-05 ± 1.9e-05		
U65G C67G	0.00141 ± 6.7e-05	3.46e-05 ± 6.7e-06	0.00012 ± 1.6e-05	0.000419 ± 4.6e-05	0.00082 ± 0.00011	1630 ± 120	0.00122 ± 0.00014
G44A U45G	0.00378 ± 0.00039	9.22e-05 ± 1.8e-05	0.000285 ± 6.4e-05	0.000889 ± 0.00016	0.00218 ± 0.00031	1850 ± 280	0.0033 ± 0.0007
A6U U31A U47G C50A A64G C68U	2.33e-05 ± 2.2e-06						
G37U U54G	< 1e-05	< 1e-05	< 1e-05	< 1e-05			
U47A A52U	0.000365 ± 3.9e-05			7.72e-05 ± 1.5e-05	0.000158 ± 3e-05	2690 ± 570	0.000299 ± 4.3e-05
G66U C71A	0.000234 ± 2.4e-05		3.4e-05 ± 1e-05	8.54e-05 ± 8.7e-06	0.000205 ± 2.4e-05	1020 ± 250	0.000202 ± 1.9e-05
A14U A15U	0.00245 ± 0.00036	5.71e-05 ± 7.8e-06	0.000141 ± 1.6e-05	0.000602 ± 7.4e-05	0.00125 ± 0.00014	2240 ± 500	0.00202 ± 0.00018
G59U G66A	2.67e-05 ± 2.5e-07					3110 ± 100	
U54G G59C	< 1e-05			< 1e-05			
U31A A42U	0.000111 ± 8.8e-06				5.06e-05 ± 1.3e-05	3380 ± 670	8.19e-05 ± 1.4e-05
C16A U45C	9.45e-05 ± 2.3e-05				8.36e-05 ± 2.3e-05		7.72e-05 ± 1.4e-05
A48G C70G	6.2e-05 ± 1.1e-05			8.57e-05 ± 1.8e-05	7.26e-05 ± 1.6e-05		5.25e-05 ± 9.4e-06
C11U C16U C71U	0.000649 ± 0.00014	4.58e-05 ± 1.8e-05		0.000215 ± 4.6e-05	0.000443 ± 0.00011	1100 ± 540	0.000614 ± 0.00012
G41U A48U	5.64e-05 ± 5.9e-06					2530 ± 840	4.45e-05 ± 1.4e-05
A14C G29A A53U G59A C68U	< 1e-05						

Variant	kcat (glucosamine-6-phosphate [1]) [s⁻¹]	self-cleavage kobs at 40 uM GlcN6P (glucosamine-6-phosphate [2]) [s⁻¹]	self-cleavage kobs at 160 uM GlcN6P (glucosamine-6-phosphate [3]) [s⁻¹]	self-cleavage kobs at 640 uM GlcN6P (glucosamine-6-phosphate [4]) [s⁻¹]	self-cleavage kobs at 2500 uM GlcN6P (glucosamine-6-phosphate [5]) [s⁻¹]	KM (glucosamine-6-phosphate [6]) [µM]	self-cleavage kobs at 10000 uM GlcN6P (glucosamine-6-phosphate [7]) [s⁻¹]
C16U C67G	0.000799 ± 5.5e-05	1.87e-05 ± 6.4e-06	7.2e-05 ± 9.4e-06	0.000229 ± 2.2e-05	0.000566 ± 6.2e-05	1570 ± 190	0.000664 ± 5.4e-05
G41C C71G	6.73e-05 ± 1.3e-05				6.12e-05 ± 7.2e-06		5.71e-05 ± 4.9e-06
G29U U46A	0.000356 ± 1.1e-05			7.15e-05 ± 1.2e-05	0.000184 ± 3.7e-05	2530 ± 150	0.000282 ± 3.6e-05
G35U G59U G66U	< 1e-05			< 1e-05			
U54A C58A	0.000802 ± 0.00016		2.83e-05 ± 1.3e-05	9.65e-05 ± 1.3e-05	0.000217 ± 2.9e-05	5450 ± 1700	0.000547 ± 5.7e-05
C16G U30A U65G	0.000143 ± 7.4e-06				5.44e-05 ± 2e-05	4140 ± 530	0.000101 ± 2.1e-05
A53G U55C	0.0183 ± 0.0057	0.000669 ± 7.9e-05	0.00157 ± 0.00027	0.00872 ± 0.0013	0.0106 ± 0.0024	1230 ± 510	0.0167 ± 0.0032
G29A U45A	0.0109 ± 0.003	0.000219 ± 4.2e-05	0.000411 ± 0.00014	0.00159 ± 0.00032	0.00447 ± 0.0012	3200 ± 1300	0.00857 ± 0.0012
U31C A39U	0.00686 ± 0.0022	7.06e-05 ± 8.4e-06	0.000146 ± 1.5e-05	0.000692 ± 6.8e-05	0.00175 ± 0.00023	6250 ± 2600	0.00432 ± 0.00036
C50G A52G	2.65e-05 ± 7.5e-06		3.58e-05 ± 1.7e-05		3.29e-05 ± 1.4e-05		
U57C U65A	1.91e-05 ± 3.6e-07	< 1e-05				1410 ± 140	
A36C C71A	< 1e-05						
C11U U46C	7.67e-05 ± 2e-05	< 1e-05		3.45e-05 ± 1.3e-05	3.71e-05 ± 9.8e-06		6.92e-05 ± 1.1e-05
U46G U69C	0.0015 ± 0.00017	0.000136 ± 3.6e-05	0.000315 ± 7.8e-05	0.00072 ± 0.00016	0.00128 ± 0.00028	539 ± 120	0.00149 ± 0.00027
G29U U54A U65A	0.000347 ± 8.3e-05		8.02e-05 ± 2.9e-05	0.000149 ± 2.1e-05	0.000241 ± 3.4e-05		0.000456 ± 0.00011
A15G U47G	0.00418 ± 0.0015	0.000326 ± 5.4e-05	0.000812 ± 0.00016	0.00171 ± 0.00031	0.00298 ± 0.00072		0.00738 ± 0.0014
